The supplement of paper PMC7125110
± gives the standard error. For part of these data: This sample holds only a part of the variants without activity.

B1: glmS ribozyme (parent)
chain: AUAAAAGCGCCAGAACUACAGAAAUGUAGUUGACGAGGAGGAGGUUUAUCGAAUUUUCGGCGGAUGCCUCCAAA

Legend:
Settings in all cases: with glucosamine-6-phosphate
glucosamine-6-phosphate [1] = variants of: B1; experiment: kcat; higher = faster cleavage; RNA array
How it was run: (§1)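 Tiles bearing barcoded ribozyme variants, transcribed in situ by E. coli RNA polymerase on sequenced MiSeq chips, were imaged over ~14 h at 37 °C using a hybridised Cy3 probe. Glucosamine-6-phosphate was supplied at 40 μM to 10 mM in HEPES/KCl/Mg(OAc)2 buffer. kobs came from one- or two-exponential decay fits to normalised per-tile medians, and weighted Michaelis–Menten fits then provided kcat and KM.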

glucosamine-6-phosphate [2] = variants of: B1; experiment: self-cleavage kobs at 2500 uM GlcN6P; higher = faster cleavage; RNA array
How it was run: as §1

glucosamine-6-phosphate [3] = variants of: B1; experiment: self-cleavage kobs at 10000 uM GlcN6P; higher = faster cleavage; RNA array
How it was run: as §1

glucosamine-6-phosphate [4] = variants of: B1; experiment: KM; higher = weaker cofactor use; RNA array
How it was run: as §1

glucosamine-6-phosphate [5] = variants of: B1; experiment: self-cleavage kobs at 160 uM GlcN6P; higher = faster cleavage; RNA array
How it was run: as §1

glucosamine-6-phosphate [6] = variants of: B1; experiment: self-cleavage kobs at 640 uM GlcN6P; higher = faster cleavage; RNA array
How it was run: as §1

glucosamine-6-phosphate [7] = variants of: B1; experiment: self-cleavage kobs at 40 uM GlcN6P; higher = faster cleavage; RNA array
How it was run: as §1

Variant	kcat (glucosamine-6-phosphate [1]) [s⁻¹]	self-cleavage kobs at 2500 uM GlcN6P (glucosamine-6-phosphate [2]) [s⁻¹]	self-cleavage kobs at 10000 uM GlcN6P (glucosamine-6-phosphate [3]) [s⁻¹]	KM (glucosamine-6-phosphate [4]) [µM]	self-cleavage kobs at 160 uM GlcN6P (glucosamine-6-phosphate [5]) [s⁻¹]	self-cleavage kobs at 640 uM GlcN6P (glucosamine-6-phosphate [6]) [s⁻¹]	self-cleavage kobs at 40 uM GlcN6P (glucosamine-6-phosphate [7]) [s⁻¹]
A39G A48G	0.000124 ± 2.2e-05	0.00013 ± 2.7e-05	0.000106 ± 1.4e-05				
A52G U57C	0.000378 ± 1.3e-05	0.000227 ± 3.1e-05	0.000314 ± 4.4e-05	1790 ± 110	2.83e-05 ± 1.3e-05	9.94e-05 ± 1e-05	
U65G C67G	0.00141 ± 6.7e-05	0.00082 ± 0.00011	0.00122 ± 0.00014	1630 ± 120	0.00012 ± 1.6e-05	0.000419 ± 4.6e-05	3.46e-05 ± 6.7e-06
U54C U65G	0.00585 ± 0.0014	0.00207 ± 0.00032	0.00371 ± 0.00042	5410 ± 1800	0.000122 ± 2.6e-05	0.000671 ± 0.00011	5.43e-05 ± 8.6e-06
U54G U65G	0.00368 ± 0.00099	0.00144 ± 0.00021	0.00282 ± 0.00029	3430 ± 1300	0.00012 ± 2.1e-05	0.000629 ± 9e-05	5.92e-05 ± 6.8e-06
U31G A48U U55G A64G	0.000666 ± 0.00016	0.000437 ± 0.00013	0.000484 ± 9.1e-05	3200 ± 1500		0.0001 ± 2.9e-05	
A12U G59A	0.000207 ± 1.4e-05	8.97e-05 ± 8.8e-06	0.000159 ± 1.8e-05	3140 ± 430		3.84e-05 ± 8.7e-06	
G13A U56G	0.000892 ± 0.0002	0.000264 ± 5.9e-05	0.000696 ± 8.2e-05	3800 ± 1300	4.73e-05 ± 9.8e-06	0.000128 ± 1.8e-05	
G13A A39G C61G C70A	< 1e-05						
U45A A64C	0.000366 ± 4.6e-05	0.000193 ± 3.8e-05	0.000277 ± 7.6e-05	2520 ± 570		7.26e-05 ± 1.9e-05	
A53U U65G	0.00461 ± 0.00078	0.00152 ± 0.0002	0.00323 ± 0.00034	4560 ± 1200	0.000238 ± 5.5e-05	0.000611 ± 0.00011	3.59e-05 ± 7e-06
G37C C70G	1.47e-05 ± 4.3e-06						
A15U U45A	0.0179 ± 0.0054	0.00648 ± 0.0023	0.0145 ± 0.0023	3230 ± 1300	0.000772 ± 0.00017	0.00219 ± 0.00059	0.000298 ± 4.7e-05
U31C U46A	0.000286 ± 7.3e-06	0.000152 ± 2.9e-05	0.000234 ± 3.3e-05	2230 ± 110		6.31e-05 ± 9.4e-06	
A12G G29C	0.000167 ± 5.4e-05	4.98e-05 ± 1.3e-05	0.000123 ± 1.4e-05			3.94e-05 ± 1.1e-05	
G13U C67U	0.000313 ± 1.9e-05	0.000177 ± 2e-05	0.000274 ± 2.4e-05	1680 ± 230	2.74e-05 ± 7.6e-06	8.78e-05 ± 1.1e-05	
C34G C67U	< 1e-05					< 1e-05	

Variant	kcat (glucosamine-6-phosphate [1]) [s⁻¹]	self-cleavage kobs at 2500 uM GlcN6P (glucosamine-6-phosphate [2]) [s⁻¹]	self-cleavage kobs at 10000 uM GlcN6P (glucosamine-6-phosphate [3]) [s⁻¹]	KM (glucosamine-6-phosphate [4]) [µM]	self-cleavage kobs at 160 uM GlcN6P (glucosamine-6-phosphate [5]) [s⁻¹]	self-cleavage kobs at 640 uM GlcN6P (glucosamine-6-phosphate [6]) [s⁻¹]	self-cleavage kobs at 40 uM GlcN6P (glucosamine-6-phosphate [7]) [s⁻¹]
U31C G37U G62C A64U C70A	< 1e-05		< 1e-05				< 1e-05
G32A G60U	< 1e-05		< 1e-05		< 1e-05		
A12U G51A	1.05e-05 ± 2.6e-06						
G29C G37A	0.000262 ± 4.4e-05	7.11e-05 ± 1.8e-05	0.000165 ± 3.8e-05	6200 ± 1700			
C68G C70U	2.04e-05 ± 6.3e-06					3.32e-05 ± 1.3e-05	
C11A U30A	0.000318 ± 4.7e-05	0.000146 ± 3.4e-05	0.000288 ± 4.4e-05	1940 ± 600		8.58e-05 ± 1.7e-05	
C10G G60C	0.00245 ± 0.00047	0.00117 ± 0.00023	0.00198 ± 0.00023	2180 ± 610	0.000167 ± 2.9e-05	0.000733 ± 8.9e-05	3.56e-05 ± 6.7e-06
U46G U69C	0.0015 ± 0.00017	0.00128 ± 0.00028	0.00149 ± 0.00027	539 ± 120	0.000315 ± 7.8e-05	0.00072 ± 0.00016	0.000136 ± 3.6e-05
C11U G59U	0.000274 ± 3.6e-06	0.000155 ± 1.6e-05	0.00023 ± 1.9e-05	1920 ± 51		6.88e-05 ± 6.5e-06	
U49A C68A	1.25e-05 ± 6e-06		< 1e-05				< 1e-05
A64U U69G	4.17e-05 ± 1.2e-05	5.01e-05 ± 1.9e-05			4.51e-05 ± 1.8e-05		
A12G G66U	0.000245 ± 7.9e-05	3.43e-05 ± 7.2e-06	9.94e-05 ± 9.7e-06				
A33G C71A	< 1e-05		< 1e-05		< 1e-05		< 1e-05
C11U U46C	7.67e-05 ± 2e-05	3.71e-05 ± 9.8e-06	6.92e-05 ± 1.1e-05			3.45e-05 ± 1.3e-05	< 1e-05
U31G C34A G37U C67U	3.45e-05 ± 1.2e-05						
A33G A64G C70A	5.02e-05 ± 9.3e-06						
